Data: the nanobody polyreactivity screen of Harvey et al. (2022)

test: yeast display, Sf9 membrane polyspecificity reagent, FACS + sequencing; frameworks hold sequencing errors
Summary of the method: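 Galactose-induced (36–48 hours) yeast carrying a synthetic nanobody display library were exposed to 10% biotinylated, detergent-solubilized Sf9 membrane reagent at 4 °C for 1 hour. FACS followed streptavidin microbead enrichment, using low and high (top ~1%) gates for expression (anti-HA) and reagent binding (streptavidin). Colony PCR, MiSeq 2 × 250 sequencing and CDR-length filtering followed. Labels for polyreactivity reflect the gate of origin.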

Sequence | polyreactivity (PSR sort gate)
QVQLVESGGGLVQAGGSLRLICAASGSTFNYNAMGSSRQAPGKERELVAAISQTTSRTYYADSVKGRFTISRDNAKNTVYLQMNSLKPEDTAVYYCATKRWTRDRQRPRTQYYLFYYWGQGTQVTVSS | high polyreactivity
QVQLVESGGGLVQAGGSLRLICAASGSTFNYNAMGWYRQAPGKERELVAAISSSGGSTYYADSVKGRFTISRDNAKYTVYLQMNSLKREDTAVYYCAASGGYGQYNYWGQGTQVTVSS | low polyreactivity
QVQLVESGGGLVQAGGSLRLICAASGSTFPYYDMGWYRQAPGKETELVAAISWSGDSTYYADSVKGRFTISRDNAKNTVYLQMNSLKPEDTAVYYCAAYSDYWSYLSTDDYWGQGTQVTVSS | low polyreactivity
QVQLVESGGGLVQAGGSLRLICAASGSTFSYNAMGWYRQAPGKEREFVAAITSSGSSTYYADSVKGRFTISRYNAKNTVYLQMNSLKPEDTAVYYCNAEVLFVAGQVQRNSGDYWGQGTQVTVSS | low polyreactivity
QVQLVESGGGLVQAGGSLRLICAASGSTFTRYAMGWYRQAPGKERELVAAITSSGSRTYYADSVKGRFTISRDNAQNTVYLQMNSLKPEDTAVYYFAALGDTRYVGMDHWGQGTQVTVSS | high polyreactivity
QVQLVESGGGLVQAGGSLRLICAASGSTFYFYAMGWYRQAPGKERELVAVISSGGSTYYADSVKGRFTISRDNAKNTVYLQMNSLKPEDTAVYYCAAYYYYTLYYRYDYWGQGTQVNVSS | low polyreactivity
QVQLVESGGGLVQAGGSLRLICAASGSTIGTNAMGWYRQAPGKERELVAAISRSGGRTYYADSVKGRFTISRDNAKNTVYLQMNSLKPEDTAVYYCAKAGLYTEYDYWGQGTQVTVSS | high polyreactivity
QVQLVESGGGLVQAGGSLRLICAASGSTLFYNAMGWYRQAPGKERELVAAISSGVRTNYADSVKGRFTISRDNAKITVYLQMNSLKPEDTALYYCAAATYNQDYSYDYWGQGTQVTVSS | low polyreactivity
QVQLVESGGGLVQAGGSLRLICAASGSTLNSYVMGWSRQAPGKERDMVATIRSGSSTNYADSVKGRFTISRDNAKNTVYFQMNSLIPEDTAVYSCAADAYSLCYDSWGQGTQVTVSS | low polyreactivity
QVQLVESGGGLVQAGGSLRLICAASGSTYRYYAMGWSRQAPGKERELVAGITGSGGSTYYADSVKGRFTISRDNAKNTVYLQMNSLNPEDTAVYDCATKLRRWRFYAAYDYWGQGTQVTVSS | high polyreactivity
QVQLVESGGGLVQAGGSLRLICAASGTFDHYAMGWDRQAPGKERELVAAISWSGGSTYYADSVKGRFTISRDNAKNTVYLQMNSLKPEDTAVYYCNAETDGYFESNDFDYWGQGTQVTVSS | high polyreactivity
QVQLVESGGGLVQAGGSLRLICAASGVIFLRYAMGWYRQAPGKERELVAAISSSGDITYYADSVKGRFTISRDNAKNTVYLQMYSLKPEDTAVYYCAATVGLWEYGYWGQGTQVTVSS | low polyreactivity
QVQLVESGGGLVQAGGSLRLICAASGVSNAKGWYRQAPGKERELVAAISRSGGSTYYADSVKGRFTISRDNAKNTVYIQMNSLKPEDTAVYYCAAGYRTRGLYSRLDWGQGTQVTVSS | high polyreactivity
QVQLVESGGGLVQAGGSLRLICAASGYIFTYNAMGWYRQAPGKERELVAAISSGDGRTYYADSVKGRFTISRDNAKNTVYLQMNSLTPEDTAVYYCNATRVVYRQAYLYGYDYWGQGTQVTVSS | low polyreactivity
QVQLVESGGGLVQAGGSLRLICAASGYIFVRNAMGWYRQAPGKEREFVATISRRGGTTYYADSVKGRFTISRDNAKNTVYLQMNSLKPEDTAVYYCAARNWPSRGYKYWGQGTQVTVSS | high polyreactivity
QVQLVESGGGLVQAGGSLRLICAASGYTFALYAIGWYRQATGKERELVAAITDSDGSTYADSVKGRFTISRDNAKNTFYLQMNSLKQEDTAVYYCAARDPHLQGYSYLSYLTMDYWGQGTQVTVSS | low polyreactivity
QVQLVESGGGLVQAGGSLRLICAASVSIFKAYAMGWYRQAPGKEMELVARIRYRGGSTYYADSVKGRFTISRDNAKNTVYLQMNSLKPEDTAVYYCAARFSPYHTDRGDYWGQGTQVTVSS | high polyreactivity
QVQLVESGGGLVQAGGSLRLICAATGSIFPVYAMVWSRQAPGKEREFVARIRFSGGRTYYADSVKGRYTISRDNAMNTVYLQMNSLKPEDTAVYYCAKDFRGYRWSYYWGQGTQVTVSS | high polyreactivity
QVQLVESGGGLVQAGGSLRLICAATGSTFVYNAMGWYRQAPGKEREFVAVINWSGGRTYADSVKGRFTISRDNAKNTVYLQMNSLKPEDTAVYYCNGERRTYRVALQYRRYDYWGQGTQVTVSS | high polyreactivity
QVQLVESGGGLVQAGGSLRLICAAYGITIGVYAMGWYRQAPVKERELVAAISSSGDTTYYADSVKGRFTISRDNAKNTVYLQKNSLKPEDTAVYYSAAYSHHQFSRSEYYYWGQGTQVTVSS | low polyreactivity
QVQLVESGGGLVQAGGSLRLICADSGRIFGWYAMGWYRQAPGKERELVAAITSGSRTSYADSVKGRFTISRDNAKNTVYLQMNSLKPEDTAVYYCNRVSHLDYYWGQGTQVTVSS | high polyreactivity
QVQLVESGGGLVQAGGSLRLICADSRRTFVSYTMGWYRQAPAKERELVAAISSGGSTTYADSVKGRFTISRDNAKNTVYLQMNSLKPEDTAVYYGNARYGWSYWSKYDYWGQGTQVNVSS | high polyreactivity
QVQLVESGGGLVQAGGSLRLICDASGIIFFPYAMGWYRQAPGKEREFVAAIRATGDNTYYADSVKGRFTISRDNAKNTVYLQMNSLKPEDTAVYYCAADRGTYQVDYWGQGTQVTVSS | low polyreactivity
QVQLVESGGGLVQAGGSLRLICDASGRILTGNAMGWYRQAPGKERELVAAISYNGGRTYYADSVKGRFTISRDNAKNTVYLQMNSLKPEDTAVYYCNVVRRQLQTSHPYGYWGQGTQVTVSS | low polyreactivity
QVQLVESGGGLVQAGGSLRLICDASGSTFAYNDMGWYRQAPGKERELVAAITYSGGSTYYADSVKGRFTISRDNAKNTVSLQMNSLKPEDTAVYYCNAYTGYPYEYWGQGTQVTVSS | low polyreactivity
QVQLVESGGGLVQAGGSLRLICDASGSTFGYYAIGGYRQAPGKERELVAVINKSGGRTYYADSVKGRFTISRDNAKNTVYLQMNSLKPEDTAVYYCATRVTSTRHDYWGQGTQVTVSS | high polyreactivity
QVQLVESGGGLVQAGGSLRLICDDSGSILSYNTMGWYRQAPGKEREFVAGITYSGSRTYYADSVKGRFTISRDNAKNTVSLQMNSLKPVDTAVYYCAKRNYYRMYWGQGTQVTVSS | high polyreactivity
QVQLVESGGGLVQAGGSLRLICPASGSIFYYYAMGWYRQAPGKERELVAAISYSDDDTYYADSVKGRFTISRDNAKNTVYLQMNSLKPEDTAVYYCAAEFTIAWSYTMDYWVQGTQVTVSS | high polyreactivity
QVQLVESGGGLVQAGGSLRLICSASGRTFLYNSMGWYRQAPGKERELVAAIRWSGGTTYYADSVKGRFTISRDNAKYNVYLQMNSLKPEDTAVYYCAARWGPYYGGVRYGYWGQGTQVTVSS | high polyreactivity
QVQLVESGGGLVQAGGSLRLIFAASGSIFNRYTMGWYRQAPGKERELVADISKSGTRTYYADSVKGRFTISRDNAKNTVYLQMNSLKPEDTAVYYCAKSSVAVYQTRYDYWGQGTQVTVSS | high polyreactivity
